Results published in the domain aggregation screens of Martell et al. (2025).

Assay: soluble fraction after stress (log2 fold change); higher = more stays soluble; pooled small domains, quantitative proteomics
Settings: stress: pH 4
How it was run: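 After pH 4 stress, pooled custom libraries of small protein domains were quantified with high-throughput quantitative proteomics. Aggregation propensity is taken from the fold change in each domain's soluble amount following the acid stress. The scale is log2, where higher values mean more stayed soluble.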

Sequence	soluble fraction (log2)
HMSDLPLLEHARQNLSDDEFRILELTTIYGYRRVEVAKMLGEPISTINWKYNKLIKKVKTFYGEVYN	-0.567
HMTPTRQATVSVAALNVREQPSLQGRRLGKLTQGTTLTVVGPPGEWLKIEYKGETGFVYASYTSLG	-0.0723
HMTDWNTVEKETLSAIQKVLSGQASWIDLSPADHSIRHMQHEMVQQAGLISQSYGKEPMRRIRIYQNP	-0.036
HMQATETFSLIVPMSSAGNRLDVVLSELLPNFSRKKIQDAIKNGDATLNGKAPKIRDKVYGGENITITLIL	0.0369
HMLQKEVHQQIQQALRALPYHQRTAIVLYYYEGMSVKEIAQATGSMQGTVQSRLFFARKKLRPILESILKK	-2.39
HMLLLASTPAEQTIIQLLAEGWRDGDQLQQRSHLSAADFSTALTMLEVNGSIKPLGANHWALTH	-0.185
HMTSEVLTNATIVKMVKAKLSDDIIIDEINNARVNFDVSPEGIKSLTAQNVTEPVIETMKKAVAAQESI	0.428
HMIKSMTGYGSAKGTVEGIEVSVELKSVNNKFLDTSIRLPRSFLFAEETIKQAVSSHISRGKVDVFVSVDS	-0.0706
HMNQEIELLLREPDFTSAARLAMAINERFTNSARAIDPTSVKVRMPEGLDQASVDFVARLEDIEMSPDT	-0.587
HMENDPYEILGIARSASDDEIKAKYRALTRENHPDILMAKGVPQEFIDLANEKMAVINAAYDKIEKER	0.12
HMGSATAPDLKGLTYEQAQTKAEDAGYNIEKGEDVYDNDVEKGKVASQDPEAGAEAKEGSVITVNISK	0.168
HMSFGFFELKSSDTDKLFAYLNNNEHFGNIKEENGLVTAFLTSELDAQTLNKLLFDNGIIASHLVKRK	-1.82
HMADRLITLSEVASLLRVSRHTVQAWISPSSPNHRPEFAIMARHAGRRTVFIEAEVTAWLDQRRG	-0.7
HMSIGLEGFVGKLGISTSDLRPSGWGEFDAKKLFVVTEGEFVDRKEKIEILSVDGNRILVRKIS	-0.471
HMQASTGNVNTETLNLRKEASTSADILKLLSQGDEVEIVSESNGWYKVKYKDTEGFVSKEYITVN	-0.159
HMQQLIEFSVTKGHPWINKKIMDLNLPENQLILTIQREGHVVSAEGKTIILENDRITISTDDR	-1.43
HMNNQIFGLKFRQLRKQQHITLAKAAAGITSRQSLGNWETGKGELAFEKVLLLLKKINVQPIDFLESSIS	0.264
HMNYIGADAAKNMAAADAQVDTANASFSGANLGEKNGLSYYQVDFTANGREYHYAIDAMTGTVIESSSAAS	-0.0522
HMKPSISKIYALWGVLQRSGKIKSQDKAALDAFVRKYTGVDHVKWLDESQARKIIEILKQMIA	0.104
HMGSKDLPFSTFMSEIDKGNITSVDIRGNEIQGTFANGTKFRTYSPNYPNLVEKLNGKGVSITAGPV	0.211
HMVLIQNEDVKDISNYPLLSSVPVFDVFNNKMIIPTFNKDSFNPLIYNFNFNSKRRLIYRVDNTNYLIVIK	-0.241
HMSDIIVQGNRRLDTDLIITDSQIREIGTDEKSLSLAVKNLYKTGYFENVQIFKDNSVVFINVKENQ	-0.358
HMGWVMLVIMSRGASEAQINAVVEKIRAAGLTEHLSKGIERTIIGAIGEERKLEPEVFELLPGVEQALHIV	-0.713
HMGPRVSAGPGRHRVQPGDTLDDIAARYRVSSRDLMLVNGLRNANHVEAGQTLKLPSNAVIA	≥ 0.43
HMENLSFNINSEEEGQRIDKYLSVMIEGKSRSFVQGLIEEKKVKANSKVIKSNYKLKKGDFIEVEVPEPV	0.36
HMKGISRVTMELIIDALKKETEPRTVQWIAEKTGLATQTTYRYLQYMVSEQTVEALNVYGKVVSLKAK	0.153

Sequence	soluble fraction (log2)
HMTKDYVVIYEGLAQTEAVEILGKLQEMGVSAKVDHNDSILVLKDEEDQIRMALATEGYPKS	-0.803
HMNETRVDQAADLLLALLEKEPKSAAEILDEFEQAGFSKSGLYRAKDALGVVSIRKEGRWVWSLPHSLD	-0.778
HMAESTRSRILNAAIEMMETGGESSVRLSAIAEALGIKEPSIYHHFTNRTELVNAAYIEWYW	-0.63
HMIKLIKKDTNISELKMSKMPWDVMLYGKPYQVVSIKGYVHTIGGRRGENDLWMYPRDESPTYENLIEFQ	0.279
HMGSYVVQLGAFAIRANAEKLAREVDGSIATSGRFSLVRVGPFTSRGQAEQALAKLRARGYSDALIHSL	-0.234
HMLMKPQKTRDVLRYLKSIGWVRLRGGQGSHEIWGLPDGSIRAVIPAGHREISAGVLMQLKRAGVDVPTQW	-0.0803
HMNNQILYERLRDLRERNHFTQAFVSSKLNIGRATYSNYERGKRTPSLDVIMDLASFYKVPFTYF	0.113
HMTALPPNVSIDSDERRLLEAIGFDPVDMDVLARDGQFSSVDLFRLLVSLELKGLVENQHGAYQRL	-1.67
HMKPGNFILDLLRTYGQKGTSAQNLMSSSRMFNFSENLIRVTLSRLAARGLIENFERGHYRLAE	0.0573
HMGQISLSVNAIPEKAEVILDGNSIGNTPIRKNTITPGSHMFEIEKKGYAPISYDIYVNPSKAINLDFFM	-0.153
HMEQYYVFFAGGMTIGTKEWYESILPENIATSYDDILEGKMMPASLEQIEFYNSHKDYDLYHLFYML	-1.4
HMADFIGMNATVTERIFPQGFGRISFVYEGNSISEPARSEDGKEIPTGTSVVVLEVRDKVYIVQPL	-0.0827
HMTRILTEDDIVNFLIRQPDTAYIIAKSFNENERKVKELLDLLIKKNKVREEIVNGVVSYAVN	-0.208
HMTPFLVRVDISDLNIRTGAGTNYSRTGQYTGKGIFTILEVKSGQGSDAGWGRLKSGAGWISLDYTTR	0.275
HMNRIARRELMEQLFADNKITTQEQLQQLLRAEGVEVTQATISRDMRILNIVKVSDQNGNTYYKQMK	0.0823
HMEIIMIVITKPSITDERIAEIVAVIERNGGVQAHVSKGTDRTVIGIIGKAEPTLAEHLRQMKGVENVIKI	-0.327
HMSTPENLGGRNTAKARISWLENGVKQELESDFPAAEVVKLSSRFGGEVPELTVIRPSLEDIYLKMIG	-0.269
HMEMGNKIKELRTKLGITQEELSKTLNVSSQAVSKWENGGLPDLELIPEIAKYFNVTTDYLFDIK	-0.723
HMTALSAREHEVLQLITRGYTADEIAAMLQISRHTALTYVRRIYSKLKVNSKAEAIFEVRQR	-0.215
HMQSRYALLAGMLRARITEGDWVPGSAIPAETVLAKEHGVALGTMRQAIALLVSQGLLERQHGRGTFVRS	-0.0211
HMSDYKSALQEAVQTNKQSIEYVLIKESGPAHNKTFTFEVRIDNISYGVGTAKSKKEAEQIAAKDALDKLV	-0.103
HMGEQVAVPDVTKKSVREVNNILTSAGLRLQIEGSGISVRQDPPADTMVAPDTVVTVSFEPP	-0.0261
HMLPSELLAQQRIVVQPGHNLWRIARATYGRGARYTVIYQANREQIADPNRIFPGQVFALPAA	-0.227
HMTKTKADKIDYAIGDSGTEPPTEDKWTDLAHLPLIKAGQFQWTRRTEYYSDGSTAVSYNIAKSE	0.156
HMDDPWHNLANAIVAVAADDYRSALRNEDEGLLKSLELFFHSEWYRILTDVDADRLLGMLRRERS	-1.14
HMKSVFQPIYEDLLSRIQDGRLLPGMPLPSENALAVQYGTSRPTIRRAIGLLVEKSLVIRQPGIGSIVAS	-0.493

Sequence	soluble fraction (log2)
HMSTEPLALVGKTGIAATVLRPSGRIEVDDKYYDAVSLGAFIEKGEMVNIVKYENLQLYVAKL	-0.0114
HMSLHSITIPQEFIGAVIGPGGKVIQEIQKQTGTTITITEKDNKGYVDIFGEDKGALDSALARIKEIVAIP	-0.277
HMESLSHRQKSIVDWVQKNGYASIERMAEQFEVSAQTIRRDVIELSERRILQRHHGGASLPAG	-0.17
HMLLPANLTKSQRNIAERVARGQSNLEIAADLNITERTVKAHLTSIYEKTKTGNRLNLALLINLG	-0.17
HMKFPPASDIRRMRKAIDVTQTELAKQSGVSQSTIAKIERGRISASYDTVVKLFETLDEMAK	-0.00924
HMSKKMLASIFDTISGIGKKRLKKIWDNYTSLNELKDDSLENIYAKTQIPINLITKIKEKLE	≥ 0.43
HMEGDAFAFTGDIQKDLLSITAVHPMRREAVDALIAKAGASWAIVEKLLAHGELTEAKHDGHLFYLRKF	-0.354
HMEIALNDKQILLFSNKLVHEPSFASKYSKVGESYDDFAIRISENLTIPDKVQEYLPYLEKVGFNI	-0.191
HMKTLKHYFASIAHEFGREEAELMLLSVFKTPFEQRLMLFMKDPALTEAQVQQLDNLVRQRKQGVPLPYIL	-0.287
HMPFTLDGVNEGSRNDQAARMSGYLISKNLNMDFIKFFMQSWNRQNSPPLSQREINSVVDNVKRTHDRKNK	-0.697
HMGSFTDKQIKQAFGVLNDPRFKQGNYDGAVAVINKIAPGLADHPSVANALKRANEATQDIAQQTQA	0.161
HMAIKWTPEIEDEVSNKLKEKWSPEQISAWLKKNKSIMISHQRIYQFIVEDKMSGGNLYRNLRQ	0.172
HMKTRNISGNHEAVWQAVRSRTQAGHPTTRAVIMDDLKAQGLNTQKFSRWLKKLVDDGSVYMDGDTIIMGK	-0.12
HMLAVEKIEFVGNERIAAADLESALSALYDRPMTTISDDEIAKLLSGFSLIETFTSQAEPPHTLRVNIRE	-0.452
HMHSQVFTDPDKAKNAVVKLGAPLVVKADGLALGKGVIIAQNPQAAKEAVASVGSSGISSISVT	0.22
HMIPDMSLELAMSEQTSKGDLYGDLPNDKLALMFNAISKKVPHTDDHKRKMVAIQTILESRAS	0.0127
HMEALPSNLRRLRLEAQLTLDRLGALSGVSRAMISKIERGASVPTATMLGKLAAALQVSLSQLL	-0.263
HMGSGVNVTVNGKRMNLPLKDDHIIFVDIFNYIDFDLSKPKGSIVLKLNGRDAGYTDPIKDGDVIDIYWQ	-0.686
HMLHNEFINDRIQSAINNLSEHFKIVIILRDIQELSYEEISNIVEVPLGTIKSRINRARIQLQAELLDL	0.103
HMEGLDDKTKIILFAGDKKEQEYSLADLKSKLNITENLTESELIKLLEKQGYVLDVNANNEFMFKKD	0.22
HMAGSTAASKHALALLNTARHSIRDGNLTSAAAEIKQALATSQEQIVITEARSLMTAMEARATTRRATVLQ	-0.179
HMAEVIYGAGKTPAQMLGILRTMQAHGQKTVLITRLREEAAEEIGREIPLQYDKTAGVGIVGTLPQPDG	-0.0513
HMRRQRNPEIFDQLVNKFHFTFTQTQQLKQLIKRWHMLFPGKSLKSAIQGYKSAKEILTYINDSLDVVE	0.0668
HMYATQLLQLEEMGFFDRAENIRALRATNGNVNAAVERL	-0.114
